{"source": "paper PMC3226435", "about": "“Slice orientation and muscarinic acetylcholine receptor activation determine the involvement of N-methyl D-aspartate receptor subunit GluN2B in hippocampal area CA1 long-term depression” (Molecular Brain, 2011)", "binders": {"B1": {"name": "Ras Guanine nucleotide Release Factor 1 (natural protein, rat (endogenous in hippocampal slices), UniProt P28818 1-1244, looked up)", "chain": "MQKAIRLNDGHVVSLGLLAQRDGTRKGYLSKRSSDNPKWQTKWFALLQNLLFYFESDSSSRPSGLYLLEGSICKRMPSPKRGTSSKESDKQHHYFTVNFSNDSQKSLELRTDDSKDCDEWVAAIARASYKILATEHEALMQKYLHLLQVVETEKTVAKQLRQQLEDGEVEIERLKAEIANLIKDNERIQSNQLVAPEDEDSDIKKIKKVQSFLRGWLCRRKWKNIIQDYIRSPHADSMRKRNQVVFSMLEAEAEYVQQLHILVNNFLRPLRMAASSKKPPITHDDVSSIFLNSETIMFLHQIFYQGLKARIASWPTLVLADLFDILLPMLNIYQEFVRNHQYSLQILAHCKQNRDFDKLLKQYEAKPDCEERTLETFLTYPMFQIPRYILTLHELLAHTPHEHVERNSLDYAKSKLEELSRVMHDEVSETENIRKNLAIERMITEGCEILLDTSQTFVRQGSLIQVPMSEKGKINKGRLGSLSLKKEGERQCFLFSKHLIICTRGSGSKLHLTKNGVISLIDCTLLDDPENMDDDGKGQEVDHLDFKIWVEPKDSPPFTVILVASSRQEKAAWTSDIIQCVDNIRCNGLMMNAFEENSKVTVPQMIKSDASLYCDDVDIRFSKTMNSCKVLQIRYASVERLLERLTDLRFLSIDFLNTFLHSYRVFTDAVVVLDKLISIYKKPITAIPARSLELLFSSSHNTKLLYGDAPKSPRASRKFSSPPPLAIGTSSPVRRRKLSLNIPIITGGKALELASLGCPSDGYTNIHSPISPFGKTTLDTSKLCVASSLTRTPEEIDMTTLEESSGFRKPTSDILKEESDDDQSDVDDTEVSPPTPKSFRNRITQEFPLFNYNSGIMMTCRDLMDSNRSPLSATSAFAIATAGANESPANKEIYRRMSLANTGYSSDQRNIDKEFVIRRAATNRVLNVLRHWVTKHSQDFETDDLLKYKVICFLEEVMHDPDLLPQERKAAANIMRTLTQEEITENHSMLDELLLMTEGVKTEPFENHSAMEIAEQLTLLDHLVFKSIPYEEFFGQGWMKADKNERTPYIMKTTRHFNHISNLIASEILRNEEVSARASTIEKWVAVADICRCLHNYNAVLEITSSINRSAIFRLKKTWLKVSKQTKSLFDKLQKLVSSDGRFKNLRETLRNCDPPCVPYLGMYLTDLAFLEEGTPNYTEDGLVNFSKMRMISHIIREIRQFQQTTYKIEPQPKVTQYLVDETFVLDDESLYEASLRIEPKLPT", "notes": "RasGRF1, Ras-specific guanine nucleotide exchange factor, endogenous in hippocampal slices of male Sprague-Dawley rats aged 14-21 days; Detected in the GluN2B immunoprecipitate by Western blot with a rabbit polyclonal anti-RasGRF1 antibody; also called RasGRF1; source: endogenous, lysate of rat hippocampal slices (RIPA buffer)"}}, "molecular_target": "T1, N-methyl D-aspartate receptor subunit GluN2B (rat (endogenous in hippocampal slices), UniProt Q00960 27-1482)", "T1 construct": "NMDA receptor subunit GluN2B, endogenous in hippocampal slices of male Sprague-Dawley rats aged 14-21 days; Immunoprecipitated from the lysate with a rabbit polyclonal antibody against the GluN2B C-terminus; other NMDA receptor subunits may be present in the precipitate but were not examined; source: endogenous, lysate of rat hippocampal slices (RIPA buffer)", "T1 sequence (Q00960 27-1482)": "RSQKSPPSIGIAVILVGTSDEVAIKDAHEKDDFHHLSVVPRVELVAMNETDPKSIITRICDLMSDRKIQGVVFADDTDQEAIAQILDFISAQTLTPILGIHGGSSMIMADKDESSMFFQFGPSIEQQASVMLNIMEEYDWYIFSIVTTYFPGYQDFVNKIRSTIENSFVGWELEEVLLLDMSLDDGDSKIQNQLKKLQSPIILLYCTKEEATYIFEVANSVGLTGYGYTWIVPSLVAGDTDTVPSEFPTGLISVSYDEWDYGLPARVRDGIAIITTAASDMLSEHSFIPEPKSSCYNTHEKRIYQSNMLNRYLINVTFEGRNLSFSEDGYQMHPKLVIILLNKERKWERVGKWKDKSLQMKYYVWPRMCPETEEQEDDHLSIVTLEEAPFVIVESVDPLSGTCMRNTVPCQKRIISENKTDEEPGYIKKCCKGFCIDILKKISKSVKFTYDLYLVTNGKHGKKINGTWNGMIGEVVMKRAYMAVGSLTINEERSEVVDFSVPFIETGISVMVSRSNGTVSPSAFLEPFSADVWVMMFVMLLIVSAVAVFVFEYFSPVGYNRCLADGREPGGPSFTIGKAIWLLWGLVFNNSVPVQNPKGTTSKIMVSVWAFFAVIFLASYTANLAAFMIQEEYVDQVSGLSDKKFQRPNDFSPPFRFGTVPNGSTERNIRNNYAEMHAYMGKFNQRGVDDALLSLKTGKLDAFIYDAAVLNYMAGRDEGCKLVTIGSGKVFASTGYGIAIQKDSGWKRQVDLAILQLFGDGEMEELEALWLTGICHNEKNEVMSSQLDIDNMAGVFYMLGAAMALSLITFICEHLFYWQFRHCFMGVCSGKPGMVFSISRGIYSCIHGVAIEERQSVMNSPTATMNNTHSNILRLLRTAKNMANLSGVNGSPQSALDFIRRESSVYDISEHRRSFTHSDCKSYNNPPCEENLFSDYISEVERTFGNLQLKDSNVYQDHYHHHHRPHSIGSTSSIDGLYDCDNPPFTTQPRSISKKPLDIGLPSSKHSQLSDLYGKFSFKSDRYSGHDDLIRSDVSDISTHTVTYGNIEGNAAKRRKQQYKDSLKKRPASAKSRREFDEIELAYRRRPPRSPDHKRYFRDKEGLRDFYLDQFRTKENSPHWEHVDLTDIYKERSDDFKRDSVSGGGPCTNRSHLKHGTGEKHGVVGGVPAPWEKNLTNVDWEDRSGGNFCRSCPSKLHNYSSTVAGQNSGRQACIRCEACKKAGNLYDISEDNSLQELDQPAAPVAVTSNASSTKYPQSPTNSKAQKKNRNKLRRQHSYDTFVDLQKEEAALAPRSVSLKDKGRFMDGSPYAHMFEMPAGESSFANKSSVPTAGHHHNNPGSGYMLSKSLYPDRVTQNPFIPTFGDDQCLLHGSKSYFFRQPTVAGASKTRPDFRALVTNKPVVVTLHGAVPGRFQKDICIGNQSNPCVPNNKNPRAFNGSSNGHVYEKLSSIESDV", "experiment": "co-IP; GluN2B immunoprecipitated with rabbit polyclonal anti-GluN2B C-terminal antibody on protein A beads from 500 ug RIPA lysate of rat hippocampal slices (sagittal control or 20 uM scopolamine for 2 hrs; untreated coronal or sagittal), overnight at 4°C, four washes in RIPA; Western blot for RasGRF1, RasGRF1 normalized to GluN2B", "conditions": "partners not purified", "data": [{"binder": "B1", "values": [{"measurement": "ratio of normalized RasGRF1 in GluN2B immunoprecipitate, coronal/sagittal", "result": "1.33 ± 0.105"}, {"measurement": "ratio of normalized RasGRF1 in GluN2B immunoprecipitate, scopolamine/control", "result": "2.04 ± 0.451"}]}]}
